What all share (experiment): multimer staining
For experiment [1], the target named is T1, cyclin A1 (CCNA1), isoform 3 (SEQ ID NO:4) peptide on HLA-A*02:01 (human).
T1 peptide: FLDRFLSCM

For experiment [2], the target named is T2, cyclin A1 (CCNA1), isoform 3 (SEQ ID NO:4) peptide on HLA-A*02:01 (human).
T2 peptide: SLIAAAAFCLA

The target of experiment [3] is T3, cyclin A1 (CCNA1), isoform 3 (SEQ ID NO:4) peptide on HLA-A*02:01 (human).
T3 peptide: YSLSEIVPCL

B1: TCR #4 (TCR, V domains shown)
Valpha: SQQGEEDPQALSIQEGENATMNCSYKTSINNLQWYRQNSGRGLVHLILIRSNEREKHSGRLRVTLDTSKKSSSLLITASRAADTASYFCATDAWESNFGNEKLTFGTGTRLTIIP
Vbeta: GAGVSQSPSNKVTEKGKDVELRCDPISGHTALYWYRQSLGQGLEFLIYFQGNSAPDKSGLPSDRFSAERTGGSVSTLTIQRTQQEDSAVYLCASSLVVGSYEQYFGPGTRLTVT
For the molecule B1, the binding result in experiment [1] was “recognises”.

B2: TCR #7 (TCR, V domains shown)
Valpha: ILNVEQSPQSLHVQEGDSTNFTCSFPSSNFYALHWYRWETAKSPEALFVMTLNGDEKKKGRISATLNTKEGYSYLYIKGSQPEDSATYLCAYLGAGNQFYFGTGTSLTVIP
Vbeta: DGGITQSPKYLFRKEGQNVTLSCEQNLNHDAMYWYRQDPGQGLRLIYYSQIVNDFQKGDIAEGYSVSREKKESFPLTVTSAQKNPTAFYLCASSLNRGRYGYTFGSGTRLTVV
Turning to B2, the binding result in experiment [2] was “recognises”.

B3: TCR #8 (TCR, V domains shown)
Valpha: AQKVTQAQTEISVVEKEDVTLDCVYETRDTTYYLFWYKQPPSGELVFLIRRNSFDEQNEISGRYSWNFQKSTSSFNFTITASQVVDSAVYFCALSELASGGSYIPTFGRGTSLIVHP
Vbeta: DAGVTQSPTHLIKTRGQQVTLRCSPKSGHDTVSWYQQALGQGPQFIFQYYEEEERQRGNFPDRFSGHQFPNYSSELNVNALLLGDSALYLCASSFRLAGGPSTDTQYFGPGTRLTVL
Consider B3, for which the binding result in experiment [3] was “recognises”.

B4: TCR #3 (TCR, V domains shown)
Valpha: QKEVEQNSGPLSVPEGAIASLNCTYSDRGSQSFFWYRQYSGKSPELIMSIYSNGDKEDGRFTAQLNKASQYVSLLIRDSQPSDSATYLCAVDSGGYQKVTFGTGTKLQVIP
Vbeta: GAGVSQTPSNKVTEKGKYVELRCDPISGHTALYWYRQSLGQGPEFLIYFQGTGAADDSGLPNDRFFAVRPEGSVSTLKIQRTERGDSAVYLCASSLNMNTEAFFGQGTRLTVV
B4: the binding result in experiment [1] was “recognises”.

(Values after patent US20200405762A1 (published 2020).)
